Measurements as given in US20220010008A1.
Residue numbers refer to the chain shown, from its start. Several values for one entry are separate records, joined by “and”; a condition that tells them apart may be missing. Identical values can stand only once.

B1: 69F2F3 (murine hybridoma lead antibody) (antibody, V domains shown)
VH: QVQLKQSGPGLVQPSQSLSITCTVSGFSLSNYGVHWVRQSPGKGLEWLGVIWSGGSTDYNAAFKSRLSITKDNSKSQVVFRMNSLQTDDTATYYCARNKDFLDYWGQGTKFTVSS
VL: DIVMTQSPSSLTVTAGEKVTMTCKSSQGLLNSGNQKNYLTWYQQKPGQPPKLLIYWASTRESGVPDRFTGSGSGTDFTLTISSVQAEDLAVYYCQNDYHFPLTFGAGTKLELK
B2: 69F2F3 mouse-human chimeric antibody (antibody, human IgG4, V domains shown)
VH: B1 VH
VL: B1 VL
B3: 102A2E11B6 (murine hybridoma lead antibody) (antibody, V domains shown)
VH: QVQLRQSGPGLVQPSQSLSITCTVSGFSLTSYGVHWVRQSPGKGLEWLGVIWSGGSTDYNAVFMSRLSISKDSSKSQVFFKMNSLQTDDTAIYYCARNRYVLDYWGQGTSVTVSS
VL: DIVMTQSPSSLSVSAGERVTMRCKSSQSLLTSGDQKNHLAWYQQKPGQPPKLLIYGASTRESGVPDRFTGSGSGTDFTLTITSVQAEDLAVYYCQNDHSFPLTFGAGTKLELK
B4: 102A2E11B6 mouse-human chimeric antibody (antibody, human IgG4, V domains shown)
VH: B3 VH
VL: B3 VL
B5: 154F10G8 (murine hybridoma lead antibody) (antibody, V domains shown)
VH: QVQLQQPGAELVKPGASVKLSCKASGYTFTSYWITWVKQRPGQGLEWIGDIYPGSGSTFYNEKFKSEATLTVDTSSSTAYMQLSSLTSEDSAVFYCSTETTLGYWGQGTTLTVSS
VL: DVLMTQTPLSLPVSLGDQASISCRSSQSIVHNNGNTYLEWYLQKPGQSPKLLIYKVSNRFSGVPDRFSGSGSGTDFTLKISRVEAEDLGVYYCFQGSHVPFTFGSGTKLEIK
B6: 147D7H2 (murine hybridoma lead antibody) (antibody, V domains shown)
VH: EVQLQQSGAELVKPGASVKLSCTASGFNIKDYFIHWVKQRTEQGLEWIGRIDTEDGETKYAPKFQGKATITIDTSSNTAYLYFSSLTSEDTAMYYCARYGNYVAMDYWGQGTSVTVSS
VL: QIVLTQSPALMSASPGEKVTMTCSASSSVSYMFWYQQKPSSSPKPWIYLTSKLASGVPARFSGSGSGTSYSLTISSVEAEDAATYYCQQWNSNPYTFGGGTKLEIK
B7: 151G3B11 (murine hybridoma lead antibody) (antibody, V domains shown)
VH: EVHLQQSGAELVKPGASVKLSCTASGFNIKDYYMHWVKQRTEQGLEWIGRIDPEDGETKYAPKFQGQATITADTSSNTANLQLSSLTSEDTAVYYCARYGNFPDYWGPGTTLTVSS
VL: B6 VL with F33Y, S40R, V77M
B8: 151G3B11 (murine hybridoma antibody) (antibody, V domains shown)
VH: B7 VH
VL: B6 VL with F33Y, S40R, V77M

What was measured:
[1] = biological target: recombinant human IL-5 protein (human) (UniProt P05113); experiment: SPR, human IL-5 immobilized on chip, 1:1 fit
[2] = biological target: recombinant human IL-5 protein (human) (UniProt P05113); experiment: SPR, human IL-5 immobilized on CM5 chip, chimeric antibody as analyte, 1:1 global fit
[3] = biological target: recombinant human IL-5 protein (human) (UniProt P05113); experiment: FACS, biotin-IL-5 bound to CHOK1 hIL-5Ra/CSF2RB cells with Ab 1.3333 nM
[4] = biological target: recombinant human IL-5 protein (human) (UniProt P05113); experiment: FACS, biotin-IL-5 bound to CHOK1 hIL-5Ra/CSF2RB cells with Ab 33.3333 nM
[5] = biological target: recombinant human IL-5 protein (human) (UniProt P05113); experiment: FACS, biotin-IL-5 bound to CHOK1 hIL-5Ra/CSF2RB cells with Ab 0.0533 nM
[6] = biological target: recombinant human IL-5 protein (human) (UniProt P05113); experiment: FACS, biotin-IL-5 bound to CHOK1 hIL-5Ra/CSF2RB cells with Ab 0.2667 nM
[7] = biological target: recombinant human IL-5 protein (human) (UniProt P05113); experiment: cell-based or functional assay
[8] = biological target: recombinant human IL-5 protein (human) (UniProt P05113); experiment: FACS, biotin-IL-5 bound to CHOK1 hIL-5Ra/CSF2RB cells with Ab 6.6667 nM
[9] = biological target: recombinant human IL-5 protein (human) (UniProt P05113); experiment: FACS, biotin-IL-5 bound to CHOK1 hIL-5Ra/CSF2RB cells with Ab 0.0004 nM
[10] = biological target: recombinant human IL-5 protein (human) (UniProt P05113); experiment: FACS, biotin-IL-5 bound to CHOK1 hIL-5Ra/CSF2RB cells with Ab 0.0107 nM
[11] = biological target: recombinant human IL-5 protein (human) (UniProt P05113); experiment: FACS, biotin-IL-5 bound to CHOK1 hIL-5Ra/CSF2RB cells with Ab 0.0021 nM
[12] = biological target: recombinant human IL-5 protein with His tag (human) (UniProt P05113); experiment: ELISA, biotin-human IL-5 on streptavidin; antibody 0.0043 nM
[13] = biological target: recombinant human IL-5 protein with His tag (human) (UniProt P05113); experiment: ELISA, biotin-human IL-5 on streptavidin; antibody 0.0009 nM
[14] = biological target: recombinant human IL-5 protein with His tag (human) (UniProt P05113); experiment: ELISA, biotin-human IL-5 on streptavidin; antibody 0.5333 nM
[15] = biological target: recombinant human IL-5 protein with His tag (human) (UniProt P05113); experiment: ELISA, biotin-human IL-5 on streptavidin; antibody 13.3333 nM
[16] = biological target: recombinant human IL-5 protein with His tag (human) (UniProt P05113); experiment: ELISA, biotin-human IL-5 on streptavidin; antibody 0.0213 nM
[17] = biological target: recombinant human IL-5 protein with His tag (human) (UniProt P05113); experiment: ELISA, biotin-human IL-5 on streptavidin; antibody 0.1067 nM
[18] = biological target: recombinant human IL-5 protein with His tag (human) (UniProt P05113); experiment: ELISA, biotin-human IL-5 on streptavidin; antibody 2.6667 nM
[19] = biological target: recombinant human IL-5 protein with His tag (human) (UniProt P05113); experiment: ELISA, biotin-human IL-5 on streptavidin; antibody 0.0002 nM

Binder	Kd [1]	koff [1]	kon [1]	Fluorescence intensity [3]	Fluorescence intensity [4]	Fluorescence intensity [5]	Fluorescence intensity [6]	RLU, CTLL-2 cell proliferation stimulated by IL-5, Ab conc. 0.000170667 nM [7]	RLU, CTLL-2 cell proliferation stimulated by IL-5, Ab conc. 0.000853333 nM [7]	RLU, CTLL-2 cell proliferation stimulated by IL-5, Ab conc. 0.004266667 nM [7]	RLU, CTLL-2 cell proliferation stimulated by IL-5, Ab conc. 0.02133333 nM [7]	RLU, CTLL-2 cell proliferation stimulated by IL-5, Ab conc. 0.1066667 nM [7]	RLU, CTLL-2 cell proliferation stimulated by IL-5, Ab conc. 0.5333334 nM [7]	RLU, CTLL-2 cell proliferation stimulated by IL-5, Ab conc. 2.666667 nM [7]	RLU, CTLL-2 cell proliferation stimulated by IL-5, Ab conc. 13.33333 nM [7]	RLU, CTLL-2 cell proliferation stimulated by IL-5, Ab conc. 66.66666 nM [7]	RLU, CTLL-2 cell proliferation stimulated by IL-5, Ab conc. 3.41333E-05 nM [7]	RLU, TF-1 cell proliferation stimulated by IL-5, Ab conc. 0.00001 nM [7]	RLU, TF-1 cell proliferation stimulated by IL-5, Ab conc. 0.00003 nM [7]	RLU, TF-1 cell proliferation stimulated by IL-5, Ab conc. 0.00017 nM [7]	other results
B1	0.0221 nM	8.14e-06 s⁻¹	368000 M⁻¹ s⁻¹																		
B2																					Kd [2]: < 0.12 nM; koff [2]: < 1e-05 s⁻¹; kon [2]: 81900 M⁻¹ s⁻¹
B3	0.063 nM	2.32e-05 s⁻¹	369000 M⁻¹ s⁻¹																		
B4																					Kd [2]: 0.221 nM; koff [2]: 2.73e-05 s⁻¹; kon [2]: 124000 M⁻¹ s⁻¹
B5	0.158 nM	6.65e-05 s⁻¹	422000 M⁻¹ s⁻¹	66	34	92	86	57900 RLU and 56300 RLU	64800 RLU and 54500 RLU	64200 RLU and 64300 RLU	56900 RLU and 52300 RLU	36100 RLU and 30000 RLU	21500 RLU and 20200 RLU	19700 RLU and 17100 RLU	16200 RLU and 14700 RLU	11500 RLU and 10900 RLU	58700 RLU and 61300 RLU	108000 RLU and 113000 RLU	110000 RLU and 115000 RLU	114000 RLU and 108000 RLU	RLU, TF-1 cell proliferation stimulated by IL-5, Ab conc. 0.00085 nM [7]: 99300 RLU and 103000 RLU; RLU, TF-1 cell proliferation stimulated by IL-5, Ab conc. 0.00427 nM [7]: 76100 RLU and 79700 RLU; RLU, TF-1 cell proliferation stimulated by IL-5, Ab conc. 0.02133 nM [7]: 54800 RLU and 57500 RLU; RLU, TF-1 cell proliferation stimulated by IL-5, Ab conc. 0.10667 nM [7]: 42100 RLU and 51500 RLU; RLU, TF-1 cell proliferation stimulated by IL-5, Ab conc. 0.53333 nM [7]: 40600 RLU and 42300 RLU; RLU, TF-1 cell proliferation stimulated by IL-5, Ab conc. 2.66667 nM [7]: 34500 RLU and 42000 RLU; RLU, TF-1 cell proliferation stimulated by IL-5, Ab conc. 13.33333 nM [7]: 33800 RLU and 35300 RLU; Fluorescence intensity [8]: 43; Fluorescence intensity [9]: 90; Fluorescence intensity [10]: 91; Fluorescence intensity [11]: 91
B6	< 0.0504 nM	< 1e-05 s⁻¹	198000 M⁻¹ s⁻¹	55	31	90	74	56800 RLU and 61000 RLU	56400 RLU and 57300 RLU	50600 RLU and 55900 RLU	49000 RLU and 45200 RLU	26500 RLU and 26300 RLU	16700 RLU and 15200 RLU	13700 RLU and 14400 RLU	12900 RLU and 13500 RLU	10700 RLU and 11300 RLU	58900 RLU and 59800 RLU	111000 RLU and 112000 RLU	111000 RLU and 113000 RLU	116000 RLU and 112000 RLU	RLU, TF-1 cell proliferation stimulated by IL-5, Ab conc. 0.00085 nM [7]: 105000 RLU; RLU, TF-1 cell proliferation stimulated by IL-5, Ab conc. 0.00427 nM [7]: 90300 RLU and 86300 RLU; RLU, TF-1 cell proliferation stimulated by IL-5, Ab conc. 0.02133 nM [7]: 72200 RLU and 55900 RLU; RLU, TF-1 cell proliferation stimulated by IL-5, Ab conc. 0.10667 nM [7]: 42300 RLU and 43600 RLU; RLU, TF-1 cell proliferation stimulated by IL-5, Ab conc. 0.53333 nM [7]: 36200 RLU and 39400 RLU; RLU, TF-1 cell proliferation stimulated by IL-5, Ab conc. 2.66667 nM [7]: 39900 RLU and 38100 RLU; RLU, TF-1 cell proliferation stimulated by IL-5, Ab conc. 13.33333 nM [7]: 35500 RLU and 37500 RLU; Fluorescence intensity [8]: 36; Fluorescence intensity [9]: 96; Fluorescence intensity [10]: 88; Fluorescence intensity [11]: 93
B7	0.0186 nM	9.04e-06 s⁻¹	486000 M⁻¹ s⁻¹	46	30	84	69	58000 RLU and 54700 RLU	56500 RLU and 56300 RLU	53600 RLU and 50900 RLU	39300 RLU and 38800 RLU	14000 RLU and 12200 RLU	12500 RLU and 11700 RLU	8720 RLU and 8840 RLU	7410 RLU and 6600 RLU	6500 RLU and 5240 RLU	60600 RLU and 48600 RLU	104000 RLU and 105000 RLU	95400 RLU and 98300 RLU	86500 RLU and 91300 RLU	RLU, TF-1 cell proliferation stimulated by IL-5, Ab conc. 0.00085 nM [7]: 72700 RLU and 70700 RLU; RLU, TF-1 cell proliferation stimulated by IL-5, Ab conc. 0.00427 nM [7]: 51100 RLU and 54700 RLU; RLU, TF-1 cell proliferation stimulated by IL-5, Ab conc. 0.02133 nM [7]: 49900 RLU and 47200 RLU; RLU, TF-1 cell proliferation stimulated by IL-5, Ab conc. 0.10667 nM [7]: 40400 RLU; RLU, TF-1 cell proliferation stimulated by IL-5, Ab conc. 0.53333 nM [7]: 35100 RLU and 37700 RLU; RLU, TF-1 cell proliferation stimulated by IL-5, Ab conc. 2.66667 nM [7]: 37900 RLU and 34300 RLU; RLU, TF-1 cell proliferation stimulated by IL-5, Ab conc. 13.33333 nM [7]: 35300 RLU and 36600 RLU; Fluorescence intensity [8]: 34; Fluorescence intensity [9]: 93; Fluorescence intensity [10]: 87; Fluorescence intensity [11]: 86
B8																					OD450 nm [12]: 0.625 and 0.609; OD450 nm [13]: 0.185 and 0.186; OD450 nm [14]: 4.03 and 3.75; OD450 nm [15]: 4.07 and 4.04; OD450 nm [16]: 2.02 and 2.11; OD450 nm [17]: 3.5 and 3.4; OD450 nm [18]: 4.07 and 3.8; OD450 nm [19]: 0.103 and 0.094
